# Reference: the supplement of paper PMC10567573
# B1: KRT34 (parent)
# chain: YQSYFKTIEELQQKILCAKAENAR
# Variants of: B1
# Test: protein stability index of a GFP-peptide fusion (GPS, HEK-293T) (PSI 1-6); higher = more stable
# Settings: c terminus: a fixed tail appended
# 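Also: lentivirally expressed fusions sorted by FACS into six bins by GFP to DsRed ratio, PSI derived from sequencing read proportions per bin multiplied by bin number.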
row,Variant,protein stability index
1,YQSYFKTIEELQQKILCAKAENAK,1.93
2,YQSYFKTIEELQQKILCAKAENAS,1.74
3,YQSYFKTIEELQQKILCAKAENAN,2.25
4,YQSYFKTIEELQQKILCAKAENAG,1.16
5,YQSYFKTIEELQQKILCAKAENAF,1.91
6,YQSYFKTIEELQQKILCAKAENAP,1.57
7,YQSYFKTIEELQQKILCAKAENAH,2.2
8,YQSYFKTIEELQQKILCAKAETAR,2.4
9,YQSYFKTIEELQQKILCAKAEHAR,1.81
10,YQSYFKTIEELQQKILCAKAEYAR,1.59
11,YQSYFKTIEELQQKILCAKAEFAR,2.17
12,YQSYFKTIEELQQKILCAKAELAR,2.26
13,YQSYFKTIEELQQKILCAKAEGAR,1.36
14,YQSYFKTIEELQQKILCAKAESAR,2.46
15,YQSYFKTIEELQQKILCAKAEPAR,1.89
16,YQSYFKTIEELQQKILCAKAEAAR,1.69
17,YQSYFKTIEELQQKILCAKAEEAR,1.89
18,YQSYFKTIEELQQKILCAKAECAR,2.04
19,YQSYFKTIEELQQKILCAKAERAR,1.43
20,YQSYFKTIEELQQKILCAKAEQAR,2.09
21,YQSYFKTIEELQQKILCAKAEDAR,2.54
22,YQSYFKTIEELQQKILCAKAEMAR,1.59
23,YQSYFKTIEELQQKILCAKAEKAR,2.22
24,YQSYFKTIEELQQKILCAQAENAR,2.62

row,Variant,protein stability index
1,YQSYFKTIEELQQKILCAGAENAR,1.92
2,YQSYFKTIEELQQKILCANAENAR,1.83
3,YQSYFKTIEELQQKILCALAENAR,2.93
4,YQSYFKTIEELQQKILCATAENAR,1.39
5,YQSYFKTIEELQQKILCAFAENAR,1.74
6,YQSYFKTIEELQQKILCAEAENAR,1.99
7,YQSYFKTIEELQQKILCASAENAR,1.9
8,YQSYFKTIEELQQKILCAMAENAR,2.51
9,YQSYFKTIEELQQKILCAIAENAR,2.39
10,YQSYFKTIEELQQKILCACAENAR,1.78
11,YQSYFKTIEELQQKILCAWAENAR,2.29
12,YQSYFKTIEELQQKILCAHAENAR,1.64
13,YQSYFKTIEELQQKILCADAENAR,2.48
14,YQSYFKTIEELQQKILCAYAENAR,1.35
15,YQSYFKTIEELQQKILCARAENAR,1.91
16,YQSYFKTIEELQQKILCAAAENAR,1.87
17,YQSYFKTIEELQQKILCAPAENAR,2.15
18,YQSYFKTIEELQQKILCAKYENAR,1.3
19,YQSYFKTIEELQQKILCAKIENAR,1.86
20,YQSYFKTIEELQQKILCAKHENAR,2.06
21,YQSYFKTIEELQQKILCAKFENAR,1.4
22,YQSYFKTIEELQQKILCAKTENAR,1.87
23,YQSYFKTIEELQQKILCAKVENAR,1.71
24,YQSYFKTIEELQQKILCAKDENAR,2.18

row,Variant,protein stability index
1,YQSYFKTIEELQQKILCAKKENAR,2.16
2,YQSYFKTIEELQQKILCAKRENAR,1.88
3,YQSYFKTIEELQQKILCAKMENAR,2.57
4,YQSYFKTIEELQQKILCAKCENAR,2.01
5,YQSYFKTIEELQQKILCAKEENAR,2.14
6,YQSYFKTIEELQQKILCAKNENAR,1.71
7,YQSYFKTIEELQQKILCAKLENAR,2.34
8,YQSYFKTIEELQQKILCAKPENAR,1.79
9,YQSYFKTIEELQQKILCAKQENAR,1.78
10,YQSYFKTIEELQQKILCAKWENAR,1.46
11,YQSYFKTIEELQQKILCAKASNAR,1.96
12,YQSYFKTIEELQQKILCAKAGNAR,1.03
13,YQSYFKTIEELQQKILCAKANNAR,1.69
14,YQSYFKTIEELQQKILCAKALNAR,2.17
15,YQSYFKTIEELQQKILCAKAINAR,1.29
16,YQSYFKTIEELQQKILCAKAHNAR,2.24
17,YQSYFKTIEELQQKILCAKARNAR,2.12
18,YQSYFKTIEELQQKILCAKAPNAR,2.14
19,YQSYFKTIEELQQKILCAKAQNAR,1.89
20,YQSYFKTIEELQQKILCAKACNAR,2.38
21,YQSYFKTIEELQQKILCAKAANAR,2.93
22,YQSYFKTIEELQQKILCAKAMNAR,1.26
23,YQSYFKTIEELQQKILCAKADNAR,1.74
24,YQSYFKTIEELQQKILCAKATNAR,2.05

row,Variant,protein stability index
1,YQSYFKTIEELQQKILCAKAFNAR,1.17
2,YQSYFKTIEELQQKILCAKAYNAR,1.27
3,YQSYFKTIEELQQKILCAKAKNAR,1.99
4,YQSYFKTIEELQQKILCAKAVNAR,2.42
5,YQSYFKTIEELQQKILCAKAENMR,1.88
6,YQSYFKTIEELQQKILCAKAENSR,2.05
7,YQSYFKTIEELQQKILCAKAENER,2.71
8,YQSYFKTIEELQQKILCAKAENFR,2.72
9,YQSYFKTIEELQQKILCAKAENIR,1.65
10,YQSYFKTIEELQQKILCAKAENGR,1.96
11,YQSYFKTIEELQQKILCAKAENRR,2.06
12,YQSYFKTIEELQQKILCAKAENVR,1.32
13,YQSYFKTIEELQQKILCAKAENHR,2.93
14,YQSYFKTIEELQQKILCAKAENQR,2.17
15,YQSYFKTIEELQQKILCAKAENPR,2.38
16,YQSYFKTIEELQQKILCAKAENKR,2.17
17,YQSYFKTIEELQQKILCAKAENYR,1.87
18,YQSYFKTIEELQQKILCAKAENDR,2.08
19,YQSYFKTIEELQQKILCAKAENTR,1.64
20,YQSYFKTIEELQQKILCAKAENLR,2.01
21,YQSYFKTIEELQQKILCAKAENNR,1.55
22,YQSYFKTIEELQQKILCAKAENCR,1.39
